In patent US11402384B2 (Duke University, priority 2015, dated 2022):
Substitutions are numbered along the chain they refer to. In names and notes the source's numbering stands.

B1: W244F A: tsGBP2.13C.W244F (SEQ ID NO: 48) Acrylodan conjugate (conjugate)
chain: MKLEIFSWWAGDCGPALEALIRLYKQKYPGVEVINATVTGGAGVNAKAVLKTRMLGGDPPDTFQVHAGQELIGTWVVADRMEDLTSLFRQEGWLQAFPKGLIDLLSYKGGIWSVPVNIHRSNVMWYIPAKLKEWGVTPPKTWAEFLATAQTLKRKGLEAPLALGENWTQQHLWESVALATLGADGWNNLWSGKLKFTDPKAVAVWETFGKVLDAANKDAAGLSWQQAVDRVVQGKAAFNIMGDFAAGYMSTTLKLKPGTDFAWTPSPGTSGIFMMLSDSFGLPKGAKNRQNAINWLKLVGSKEGQDTFNPLKGSIAARLDSDPAKYNAYGQSAMKDWKSNRIVGSLVHGAVAPESFMSQFGTVMEIFLQSRNPQAAANAAQAIANQVGLGRGGSHHHHHH
modifications: Acrylodan conjugate; tsGBP2.13C.W244F (13C, 244F double substitution mutant with signal peptide replaced with M and a GGSHHHHHH at C-terminus)
B2: tsGBP2: glucose-binding protein from Thermus scotoductus, SEQ ID NO: 10 (protein)
chain: B1 chain with C13E, F244W
modifications: tsGBP2 (with signal peptide replaced with M and a GGSHHHHHH at C-terminus)
B3: ttGBP1: glucose-binding protein from Thermus thermophilus, SEQ ID NO: 9 (protein)
chain: MKLEIFSWWAGDEGPALEALIRLYKQKYPGVEVINATVTGGAGVNARAVLKTRMLGGDPPDTFQVHAGMELIGTWVVANRMEDLSALFRQEGWLQAFPKGLIDLISYKGGIWSVPVNIHRSNVMWYLPAKLKGWGVNPPRTWDKFLATAQTLKQKGLEAPLALGENWTQQHLWESVALAVLGPDDWNNLWNGKLKFTDPKAVRAWEVFGRVLDAANKDAAGLSWQQAVDRVVQGKAAFNIMGDWAAGYMTTTLKLKPGTDFAWAPSPGTQGVFMMLSDSFGLPKGAKNRQNAINWLRLVGSKEGQDTSNPLKGSIAARLDSDPSKYNAYGQSAMRDWRSNRIVGSLVHGAVAPESFMSQFGTVMEIFLQTRNPQAAANAAQAIADQVGLGRLGQHHHHHH
modifications: ttGBP1 (with signal peptide replaced with M and a HHHHHH at C-terminus)
B4: dmGBP3: glucose-binding protein from Deinococcus maricopensis, SEQ ID NO: 11 (protein)
chain: MKLEIFSWWSGDEGPALEALVKLYKQKYPSVDVVNATVAGGAGTNAKAVLKTRMLGGDPPDSFQAHAGQELIGTWVVANRMEDLSSLFKSEGWTTKFPKDLLPLISSKGGIWSVPVNVHRSNVMWYIPANLKKWGVTAPKTWDQFLTTAKTLKTKNVTPLALGENWTQQHLWESVAVGTLGAQGWQNLWSGKLKFTDPKVVKVWDTFGKVLDATNKDASGLSWQQATDRVVNGQAAFNIMGDWAAGYLSTTKKLKPGTGFGWAPSPSTSGTFIFLADSFGLPKGAKDRAEALSWLKLLGSKQGQDTFNPLKGSIAARVDSDLSKYSTYSQSAAKDWKSNKIVGSLTHGAVAPESFTSTFGTVIDAFVASRNAQVAAATTQQLADKAGLGKGGSHHHHHH
modifications: dmGBP3 (with signal peptide replaced with M and a GGSHHHHHH at C-terminus)

How the values were obtained:
[1] = Immobilization on Ni-NTA magnetic beads, drying and accelerated aging of sensor; format: physicochemical
Protocol: The magnetic beads coated with immobilized tsGBP13C_ 244F.Acrylodan were dried by incubation at 50° C. for 20 minutes, using an aqueous ammonium bicarbonate buffer. […] The dried beads were aged in situ inside fully assembled sample-handling cartridges by incubation for up to 7 days at 25° C., 37° C., and 50° C. in the dark. Fluorescence and glucose-responsive properties were tested in cartridges stored for 1, 2 and 7 days. […] The tsGBP2-based FRSs therefore are sufficiently robust to be handled at ambient temperatures in a desiccated state, greatly simplifying manufacturing, distribution, and long-term storage conditions.

[2] = ligand-free protein; SYPRO Orange, Roche LightCycler
Protocol: Eight homologs that were predicted to be glucose-binding proteins (FIG. 4, Table 3) were selected to probe different degrees of sequence identity to the ttGBP1 seed, and their glucose-binding properties were determined experimentally. These experiments comprised four successive steps: • 1. Synthetic gene construction. The amino acid sequence of the homology leads were backtranslated into DNA sequences. These were optimized for directing heterologous cytoplasmic expression of the protein homologues in E. coli, using either the OrfOpt or OrfMorph programs. These programs predict mRNA sequences that direct high-level protein expression in E. coli. The predicted gene sequences were assembled de novo from synthetic oligonucleotides. • 2. Heterologous protein expression of the homologues in E. coli. Plasmids carrying the synthetic expression constructs (see above) were transformed into KRX competent cells (Promega). Protein production was induced in bacterial cultures of these cultures, as described in the Materials and Methods. • 3. Purification of successfully expressed protein using immobilized metal affinity chromatography. • 4. Verification of glucose binding. Determination of the glucose-binding properties of the purified proteins using a thermal stability shift assay.
Analysis of glucose-binding properties using thermal melts. The thermal stability of purified GBP candidate proteins was determined by measuring the temperature-dependence of the fluorescence signal of an extrinsically added dye, SYPRO, using a Roche LightCycler (Layton and Hellinga, 2010, Biochemistry, 49, 10831-41). The total fluorescence intensity, S, is given by S=βFfF+βUfU 11 where fF and fU are the fractions of protein in the folded and unfolded states, respectively, and βF and βU the fluorescence baselines of these two states. To get the fractions of the two states, we have
[formula] where KU(T) is the temperature-dependent unfolding equilibrium constant, which by the van't Hoff approximation is given by
[formula] Where T is the temperature, Tm, the unfolding reaction transition mid-point temperature, and ΔHU the enthalpy of unfolding.

| Molecule | stability properties upon rehydration after drying ([1]; beads dried at 50° C. for 20 minutes, determined up to 100° C.) | fluorescence ratio in the absence of glucose and glucose affinities after aging ([1]; dried beads stored 1, 2 and 7 days at 25° C., 37° C., and 50° C. in the dark) | protein stability on beads compared with solution ([1]; immobilized via C-terminal hexa-histidine tag on Ni-NTA magnetic beads, measured up to 100° C.) | Thermostability ^apoTm [2] [°C] |
| --- | --- | --- | --- | --- |
| B1 | recovered upon rehydration | remained approximately unchanged | not perturbed |  |
| B2 |  |  |  | >100 |
| B3 |  |  |  | >100 |
| B4 |  |  |  | 47 |
